Data set [1] relates to NB1 cells. Put plainly: NB1 cell morphology. Format: cell-based, human. As to conditions: NB1 cells treated with antibody. The source says:
By contrast, treatment with Ab324, an ALK agonist, caused the cells to spread out.

The test system of data set [2] is ALK on the surface of NB1 cells. Kind of data set: KD determination by flow cytometry on NB1 cells. Format: binding. As to conditions: NB1 (human) cells, FACS, mean. As to the method: FIG. 3 depicts the apparent affinities (KD) of ALK antibodies for ALK expression on the surface of NB1 cells. KD was determined by flow cytometry. Titration of each antibody on NB1 cells for 2-4 hours at 4° C. was followed by incubation with a fluorescently-labeled secondary antibody. The normalized mean fluorescent intensity […] shown as “% Max binding” was plotted as a function of antibody concentration.
Flow cytometry was utilized to measure the affinity at steady state (KD) with which different ALK antibodies bind to ALK on the surface of NB1 cells (FIG. 3). Titration of each antibody on NB1 cells for 2-4 hours at 4° C. was followed by incubation with a fluorescently-labeled secondary antibody. The normalized mean fluorescent intensity (MFI) shown as “% Max binding” was plotted as a function of antibody concentration. The data were fit to a one site binding isotherm using GraphPad Prism, from which affinity values were derived.
(§1) Amino acid residues that differ between rat ALK and mouse ALK are boxed. KD values for both NB1 (human) cells and Neuro2a (mouse) cells were also determined.

Data set [3] concerns the target T1, cell surface mALK on Neuro2a cells (Mus musculus, UniProt P97793).
T1 construct: Neuro-2a cells that express low levels of endogenous murine ALK; endogenous in cells; host or cells: Neuro-2a (Neuro2a) mouse neuroblastoma cells
Kind of data set: KD of humanized antibodies on Neuro2a (mouse) cells. Format: binding. As to conditions: FACS, mean. As to the method: as §1

Data set [4] relates to NB1 cells. Put plainly: Crizotinib titration and co-titration with ALK antibodies, killing of NB1 cells. Format: cell-based, human. As to conditions: co-titration of crizotinib with the antibody.
The target of data set [5] is T2, total ALK and phosphorylated ALK in tumor homogenates (Homo sapiens, UniProt Q9UM73, F1174L).
T2 construct: Western blot analysis of homogenates of tumors harvested 72 hours after the second dose; from tissue; host or cells: patient-derived (PDX) neuroblastoma tumors grown in mice
T2 sequence (Q9UM73 19-1620 F1174L): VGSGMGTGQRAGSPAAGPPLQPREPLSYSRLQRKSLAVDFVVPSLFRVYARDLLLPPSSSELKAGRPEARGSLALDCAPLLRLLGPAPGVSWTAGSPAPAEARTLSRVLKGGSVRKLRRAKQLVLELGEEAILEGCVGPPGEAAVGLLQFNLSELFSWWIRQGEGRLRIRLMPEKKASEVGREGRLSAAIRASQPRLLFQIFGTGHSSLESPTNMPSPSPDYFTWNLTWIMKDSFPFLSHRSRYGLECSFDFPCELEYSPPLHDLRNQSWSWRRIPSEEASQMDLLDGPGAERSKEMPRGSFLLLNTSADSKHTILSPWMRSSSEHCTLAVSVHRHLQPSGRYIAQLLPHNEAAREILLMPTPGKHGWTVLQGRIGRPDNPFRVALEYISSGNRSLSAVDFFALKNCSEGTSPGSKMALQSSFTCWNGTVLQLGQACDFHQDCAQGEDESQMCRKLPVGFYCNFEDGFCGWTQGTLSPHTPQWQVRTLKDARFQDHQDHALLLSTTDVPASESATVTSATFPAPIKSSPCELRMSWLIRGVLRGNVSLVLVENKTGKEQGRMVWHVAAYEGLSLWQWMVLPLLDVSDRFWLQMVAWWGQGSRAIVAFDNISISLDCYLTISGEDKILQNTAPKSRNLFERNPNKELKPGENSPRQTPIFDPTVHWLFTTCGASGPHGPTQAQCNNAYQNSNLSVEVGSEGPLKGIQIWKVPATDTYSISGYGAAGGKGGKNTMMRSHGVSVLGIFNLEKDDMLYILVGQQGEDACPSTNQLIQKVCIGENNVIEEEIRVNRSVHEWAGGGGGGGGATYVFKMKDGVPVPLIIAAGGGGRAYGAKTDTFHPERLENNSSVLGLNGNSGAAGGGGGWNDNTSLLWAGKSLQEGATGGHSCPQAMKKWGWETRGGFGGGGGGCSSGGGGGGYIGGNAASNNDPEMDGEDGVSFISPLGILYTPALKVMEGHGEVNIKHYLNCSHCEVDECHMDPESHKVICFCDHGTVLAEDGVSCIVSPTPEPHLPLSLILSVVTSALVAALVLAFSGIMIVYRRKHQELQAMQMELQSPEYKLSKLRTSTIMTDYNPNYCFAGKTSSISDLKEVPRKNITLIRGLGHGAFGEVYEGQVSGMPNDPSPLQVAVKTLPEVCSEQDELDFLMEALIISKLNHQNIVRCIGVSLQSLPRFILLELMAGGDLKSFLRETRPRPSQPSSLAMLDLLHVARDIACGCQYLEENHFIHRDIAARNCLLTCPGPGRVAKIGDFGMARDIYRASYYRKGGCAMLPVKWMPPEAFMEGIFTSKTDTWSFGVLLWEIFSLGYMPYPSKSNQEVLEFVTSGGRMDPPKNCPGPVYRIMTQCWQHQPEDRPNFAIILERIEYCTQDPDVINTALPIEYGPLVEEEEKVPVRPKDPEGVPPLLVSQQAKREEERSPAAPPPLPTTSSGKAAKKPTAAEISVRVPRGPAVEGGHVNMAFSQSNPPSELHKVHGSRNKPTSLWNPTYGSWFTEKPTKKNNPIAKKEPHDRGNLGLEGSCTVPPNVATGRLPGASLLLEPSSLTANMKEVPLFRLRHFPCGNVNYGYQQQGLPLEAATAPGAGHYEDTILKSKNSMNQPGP
Kind of data set: Western blot of tumor homogenates from the PDX model. Format: in vivo, mouse. As to conditions: tumors harvested 72 hours after the second dose, vs control IgG1. The source says: (§2) FIGS. 8A-B depict the in vivo antitumor activity of the Ab326 anti-ALK antibody in a patient-derived (PDX) neuroblastoma ALK F1174L tumor model compared with control IgG1 (A) and a western blot of tumor homogenates harvested from the patient-derived tumor model showing relative levels of total ALK and phosphorylated ALK in Ab326-treated and control IgG1-treated mice (B). GAPDH is included in the western blot of FIG. 8B as a control for protein level.
(§3) The effect of Ab326, generated in Example 1, on the patient-derived NB tumor mouse model was consistent with its inhibitory effect on phosphorylation of ALK and downstream signaling (FIG. 8A). Tumor volume was reduced over a two-week period in comparison with a control IgG1 antibody.

Data set [6] relates to ALK (total protein levels in NB1 cells). Put plainly: ALK turnover (total protein levels) by Western blot, 24 hour treatment of NB1 cells. Format: cell-based, human. Further details: key: − none; + weak; ++ moderate; +++ strong. The text has this:
FIG. 5 depicts a Western blot of a panel of ALK antibodies.
See also Table 18, below.

In data set [7] the test system is ALK (basal phosphorylation in NB1 cells). Put plainly: Western blot of ALK phosphorylation in NB1 cells. Format: cell-based, human. As to the method: Lysed cells were subjected to SDS-PAGE, transferred to nitrocellulose and immunoblotted with antibodies against total, and phospho-specific ALK, AKT, and MAPK. FIG. 4B depicts an ELISA of NB1 cells grown in media with reduced serum and treated with 30-100 nM of each antibody for 1-2 hours. Cell lysates were incubated on ELISA plates with an anti-ALK antibody, followed by incubation with a pan phosphotyrosine antibody coupled to HRP.
Cell lysates were subjected to SDS-PAGE and transferred to nitrocellulose. Immunoblotting was performed with antibodies against total, and phospho-specific ALK, AKT, and MAPK (purchased from Cell Signaling and utilized per manufacturer's instructions). HRP (horse radish peroxidase)-conjugated secondary antibodies (Thermo Scientific, Waltham, Mass.) were used along with Supersignal West Pico Chemiluminescent Substrate (Thermo Scientific, Waltham, Mass.) to image blots.
Anti-ALK monoclonal antibodies generated in Example 1 were evaluated via Western blotting for their ability to activate or inhibit basal levels of ALK phosphorylation in NB1 cells (FIG. 4A). A subset of ALK antibodies stimulated ALK tyrosine phosphorylation and a different subset of antibodies inhibited basal levels of ALK phosphorylation. See also Table 18, below. […] That is, ALK antibodies that stimulated ALK tyrosine phosphorylation increased MAPK and AKT phosphorylation, whereas ALK antibodies that inhibited ALK tyrosine phosphorylation decreased basal levels of MAPK and AKT phosphorylation (FIG. 4A). Similar results were obtained in ELISA-based ALK phosphorylation assays from lysates of NB1 cells treated with ALK antibodies (FIG. 4B).

Data set [8] addresses murine ALK (purified mouse ALK antigen) (Mus musculus, UniProt P97793). Kind of data set: Mouse ALK cross-reactivity, solid-state ELISA. Format: binding. Set-up: key: − none; + weak; ++ moderate; +++ strong. As to conditions: cross-reactivity with murine ALK. As to the method: Purified mAbs were evaluated for their ability to bind murine ALK by solid-state ELISA, or flow cytometry on Neuro-2a cells that express low levels of endogenous murine ALK. […]

The target in data set [9] is C-terminal region of human ALK ECD (T637-S1038) (Homo sapiens, UniProt Q9UM73). Put plainly: Competitive binding assay (epitope binning) by flow cytometry. As to conditions: antibodies to the C-terminal region. As to the method:
Antibodies that bind to the C-terminal region of human ALK ECD (T637-S1038) were further characterized using a competitive binding assay. A pairwise matrix approach was used whereby each antibody was fluorescently labeled and tested for its ability to bind to ALK-expressing cells pre-incubated with an unlabeled antibody. The ability of both antibodies to bind the C-terminal domain simultaneously was tested via flow cytometry. If both antibodies bound simultaneously, they were put into different bins and considered to belong to a separate epitope class.

The subject of data set [10] is patient-derived (PDX) neuroblastoma ALK F1174L tumor. Put plainly: Patient-derived (PDX) neuroblastoma ALK F1174L tumor model. As to conditions: two weekly intraperitoneal doses at 10 mg/kg, two-week period, in comparison with control IgG1. Format: in vivo, mouse.
From the text: as §2
Patient-derived (PDX) neuroblastoma tumor model mice were produced. […] Mice received two weekly intraperitoneal doses of Ab326 or a control IgG1 at 10 mg/kg.
as §3

T1 sequence (P97793 19-1621): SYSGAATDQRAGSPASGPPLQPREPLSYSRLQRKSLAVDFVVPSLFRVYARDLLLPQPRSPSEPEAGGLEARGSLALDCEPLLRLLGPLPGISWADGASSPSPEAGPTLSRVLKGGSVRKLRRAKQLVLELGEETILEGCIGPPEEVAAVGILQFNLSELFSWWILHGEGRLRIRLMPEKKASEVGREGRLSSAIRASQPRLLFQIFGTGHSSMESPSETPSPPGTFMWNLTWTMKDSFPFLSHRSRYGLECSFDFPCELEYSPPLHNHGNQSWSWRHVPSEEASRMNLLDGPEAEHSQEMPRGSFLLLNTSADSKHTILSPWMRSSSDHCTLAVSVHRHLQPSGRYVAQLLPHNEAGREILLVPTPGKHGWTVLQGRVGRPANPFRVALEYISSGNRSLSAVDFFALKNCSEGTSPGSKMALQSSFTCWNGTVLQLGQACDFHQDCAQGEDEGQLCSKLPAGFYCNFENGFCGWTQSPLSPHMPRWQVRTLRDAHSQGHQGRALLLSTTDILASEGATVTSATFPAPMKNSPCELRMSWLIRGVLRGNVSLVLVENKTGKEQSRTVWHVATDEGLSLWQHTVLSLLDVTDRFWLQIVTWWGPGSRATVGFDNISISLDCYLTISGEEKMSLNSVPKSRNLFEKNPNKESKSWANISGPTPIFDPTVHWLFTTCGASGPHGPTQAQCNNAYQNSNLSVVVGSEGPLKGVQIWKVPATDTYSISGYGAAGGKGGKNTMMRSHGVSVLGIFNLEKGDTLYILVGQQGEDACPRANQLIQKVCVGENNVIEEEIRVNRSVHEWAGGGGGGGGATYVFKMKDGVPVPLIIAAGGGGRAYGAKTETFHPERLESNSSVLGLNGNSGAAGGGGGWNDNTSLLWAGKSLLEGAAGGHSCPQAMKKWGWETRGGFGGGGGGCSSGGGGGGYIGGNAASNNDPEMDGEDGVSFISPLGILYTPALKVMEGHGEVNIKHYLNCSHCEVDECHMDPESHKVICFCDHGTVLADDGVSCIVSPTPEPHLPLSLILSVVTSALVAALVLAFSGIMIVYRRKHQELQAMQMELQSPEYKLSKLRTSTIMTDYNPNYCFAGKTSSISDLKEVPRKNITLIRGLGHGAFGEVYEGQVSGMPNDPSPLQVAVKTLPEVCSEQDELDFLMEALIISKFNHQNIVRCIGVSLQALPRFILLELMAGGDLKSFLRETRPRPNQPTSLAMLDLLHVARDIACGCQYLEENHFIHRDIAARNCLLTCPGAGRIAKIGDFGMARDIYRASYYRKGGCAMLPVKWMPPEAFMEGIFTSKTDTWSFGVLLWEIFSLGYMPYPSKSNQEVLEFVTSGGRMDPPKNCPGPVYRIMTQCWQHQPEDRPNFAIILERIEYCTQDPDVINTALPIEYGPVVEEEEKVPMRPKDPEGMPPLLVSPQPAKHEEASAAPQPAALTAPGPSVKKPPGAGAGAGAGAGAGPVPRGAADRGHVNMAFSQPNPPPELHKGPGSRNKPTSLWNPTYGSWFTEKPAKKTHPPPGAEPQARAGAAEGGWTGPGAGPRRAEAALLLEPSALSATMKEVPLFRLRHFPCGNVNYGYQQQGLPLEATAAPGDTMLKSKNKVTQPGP
C-terminal region of human ALK ECD (T637-S1038), sequence (Q9UM73 19-1620): as the sequence (Q9UM73 19-1620 F1174L) above, with L1156F counted along it
murine ALK (purified mouse ALK antigen), sequence (P97793 19-1042 limits assumed): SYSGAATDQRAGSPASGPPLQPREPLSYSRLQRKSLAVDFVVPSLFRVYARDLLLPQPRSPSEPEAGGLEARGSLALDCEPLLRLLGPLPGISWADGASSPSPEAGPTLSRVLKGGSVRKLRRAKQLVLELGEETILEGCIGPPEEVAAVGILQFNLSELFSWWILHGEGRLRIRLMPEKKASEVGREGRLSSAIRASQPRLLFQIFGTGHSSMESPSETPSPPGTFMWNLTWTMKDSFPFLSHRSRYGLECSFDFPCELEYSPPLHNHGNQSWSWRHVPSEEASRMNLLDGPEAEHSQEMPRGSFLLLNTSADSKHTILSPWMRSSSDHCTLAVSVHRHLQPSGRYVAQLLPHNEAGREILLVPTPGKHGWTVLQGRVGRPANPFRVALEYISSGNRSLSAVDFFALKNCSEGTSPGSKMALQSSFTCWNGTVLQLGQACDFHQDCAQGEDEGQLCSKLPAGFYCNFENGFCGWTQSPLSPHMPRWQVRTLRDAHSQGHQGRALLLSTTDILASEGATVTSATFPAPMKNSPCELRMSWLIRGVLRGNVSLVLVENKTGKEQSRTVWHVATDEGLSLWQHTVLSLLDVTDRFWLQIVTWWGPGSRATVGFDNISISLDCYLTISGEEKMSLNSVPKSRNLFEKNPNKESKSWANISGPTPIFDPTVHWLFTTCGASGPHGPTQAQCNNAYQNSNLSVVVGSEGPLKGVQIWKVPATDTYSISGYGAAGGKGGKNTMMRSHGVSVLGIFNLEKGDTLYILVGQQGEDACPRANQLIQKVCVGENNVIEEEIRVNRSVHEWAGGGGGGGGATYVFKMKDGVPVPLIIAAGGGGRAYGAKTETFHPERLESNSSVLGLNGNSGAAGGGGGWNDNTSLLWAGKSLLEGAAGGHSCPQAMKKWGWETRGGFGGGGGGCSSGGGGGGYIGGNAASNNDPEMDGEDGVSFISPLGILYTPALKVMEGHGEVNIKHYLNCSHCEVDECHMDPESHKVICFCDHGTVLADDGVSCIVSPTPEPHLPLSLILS

B1: Ab326: anti-ALK monoclonal antibody; VL SEQ ID NO: 407, VH SEQ ID NO: 408 (antibody, V domains shown)
VH: QVQLQQSGAELAKPGASVKLSCKASGYTFTSYWMHWVKQRPGQGLEWIGYIKPSSGYTKYNQKFKDKATLTADKSSSTAYMQLSSLTYEDSAVYYCARDYYGSSSWFAYWGQGTLVTVSA
VL: DIVMTQSQRFMSTSVGDRVSVTCKASQNVGTNVAWYQQKPGQSPKALIYSASYRYSGVPDRFTGSGSGTDFTLTISNVQSEDLAEYFCQQYNSYPYMYTFGGGTKLEIKR
modifications: VH domain - Ab326; VL domain - Ab326
On to B1, for which, in data set [1], the NB1 cell morphology result is “rounded morphology”. Binding in data set [2] was characterised by a dissociation constant (Kd) of 0.94 nM. The molecule further gave a Kd in data set [3] of 0.58 nM. Further, in data set [4], the “effect on the anti-proliferative effect of crizotinib” value is reported as “enhanced”. Besides, in data set [5], the “phosphorylated ALK in tumor homogenates” value is “reduction” and the “total ALK in tumor homogenates” value was “reduction”. For the same molecule, in [6], the ALK turnover entry is recorded as “−”. For the same molecule, in data set [7], the “effect on ALK activity (ALK inhibitory or ALK agonistic antibody)” value is recorded as “inhibitory”. The ALK phosphorylation entry in data set [7] (effect in words) is “inhibitor”. The “mouse ALK binding” value in data set [8] is listed as “+++”. For the same molecule, in data set [9], the “Bin/Domain (bin)” value is on record as 2. Further, the tumor volume entry in data set [10] is given as “reduced”.

For the origin of these results see patent US11091559B2, “Anti-ALK antibodies and methods for use thereof” (Celldex Therapeutics, Inc., priority 2015, dated 2021).
